Data taken from the nanobody polyreactivity screen of Harvey et al. (2022).

Test: yeast display, Sf9 membrane polyspecificity reagent, FACS + sequencing; frameworks hold sequencing errors
Method in brief: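 Galactose induction of a Saccharomyces cerevisiae BJ5465 synthetic nanobody display library ran 36–48 hours. The cells were then stained for 1 hour at 4 °C with 10% biotinylated, detergent-solubilized Sf9 membrane reagent, pulled down on streptavidin microbeads and FACS-sorted into low and high (top ~1%) gates on expression and reagent-binding fluorescence. Labels for polyreactivity follow the gate of origin.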

Sequence	polyreactivity (PSR sort gate)
QVQHVESGGGLVQAGGSLRISCAASGSIFYYNAMGWYRQAPGKERELVAAISWGDGITYYADSVKGRFTISRDNAKNTVYLQMNSLKPEDTAVYYCAVDYYYLAYEYWGQGTQVTVSS	high polyreactivity
QVQLVESGGGLVQAGGTLRLSGAASGSTFVYNAMGWNIQAPGKERDLVAVITRRGGSPYYADSVNGRFTISRDNEKKTVYLQMNILNPEDTAVYYCAAGYRRTQTTDYHYWGHGTQVTVSS	high polyreactivity
QVQLVESGGGLVQAGGSLRLSCAASGSIFNDNVMGWYRQAPGKERELVAGISRSGTRTYYADSVKGRFTISRDNAKNTVYLQMNSLKPEDTAVYYCAAAYGQARRYNGSQYGSWGQGTQVTVSS	high polyreactivity
QVQLVESGGGLVQAGGILRLSCAASGLIFYYYAMGWYRQAPGKERELVAAIRTNYADSVKGRFTISRDNAKNTVYLQMNSLKPEDTAVYYCAAESSHSPTSAFDYWGQGTQVTVSS	low polyreactivity
QVQLVESGGGLVQAGGSLRLSCAASGFIFFRYAMGWYRQAPGKERELVAAISSSGGSTYYADSVKGRFTISRDNAKNTVYLQMNSLKPEDTAVYYCAAPRYRIFVGLGMEYWGQGTQVTVSS	high polyreactivity
QVQLEESGAGLVQAGGSLRLSCAASVSIFRQYAMGWYRQAPGKERELFAAINYSGGKTYYADSVKGRFTISRDNAKNTVYLQLNSLKPEDTAVYYCAADSVRHYWWAYYYWGQVTQVTVSS	low polyreactivity
QVQLVESGGGLVQAGGSLRLSCAASGSIFAANTMGWYRQAPGKERELVATISWSSGRTRYADSVKGRFTISRDNAKNTVYLQMNSLKPEDTAVYYCAARYYYSRSRLYYYWGQGTQVTVSS	high polyreactivity
QVQLVESGGGLVQAGGTLRLSCAASGSIVVGNTMGWYRQAPGKERELVAAITWSGGRTYYADSVKGRFTISRDIAKNTVYLQMNSLKPEDTAVYYCAAPTYLRRGMDTYNLGYGYWGQGTQVTVSS	high polyreactivity
QVQLVESGGGLVQAGGSLRLSCPASGSTIFGTAMGWYRQAPGKDWELVAASSYSGDSTYYADSVKGRFTISRDNAKHTVYVEMISLKPEDTAVYYCAAGFVIKYDYWGQGTQVTVSS	low polyreactivity
QVQLVESGGGLVQAGGSLRLSCAASGFNFADNAMGWYRQAPGKEREFVAAISRSGGTTYYADSVKGRFTISRDNAKNTVYLQMNSLKPEDTAVYYCATRLTSYPDYDYWGQGTQVTLSS	low polyreactivity
QVQLVESGGGLVQEGGSLRLSCAASGIIFSIYAMGWYRQAPGKERELVAVISRSSGSTYYADSVKGRFTISRDNAKNTVYLQMNSLIPEDTSVYFCAARKNRAYGYWGQGTEVTVSS	high polyreactivity
QVQLVESGAGLVQAGGSLRLSCAASGLTIYVNAMGWYGQAPGKERELVATISGSGSTNYADSEKGRFTISRDDAKNTVYLQMNSLKPEDTAVYYCNAGWAQDPSNYWGQGTQVNVSS	low polyreactivity
QVQLVESGGGLVQAGGSLRLSCAASGLTFVFYAMGWYRQAPGKERELVAAISWSTGRTYYADSVKGRFTISRDNAKNTVYLQMNSLKPEGTAVYYCAASYLGRKYDYWGQGTQVTVSS	high polyreactivity
QVQLVESGGGLVQAGGSLRLSCAASGFTFNYYAMGGYRQAPGKERELVAAIDSGTSTNYADSVKGRFTISRDNAKNTVYLQMNSLKPEDTAVYYCAADPGIFDGIFDYWGQGSQVTVSS	low polyreactivity
QVQLVESGGCLVQAGGSLRLSCAASGFTFYGYAMAWYRQAPGKERELVAYISWSGGTTYYADSVKGRFTISRDNAKNTVYLQMNSLKPEDTAVYYCNAVRYRYGVFPYYYWGQGTQVTVSS	high polyreactivity
QVQLVESGGGLVQAGGSLRLSCAASGSTFVVYDMGWDRQAPGKERELVAAITWSGGSTYYADSVKGRFTISRDNAKNTVYLQINSLKPEDTAVYYCNKVTWHQGHDYLGQGTQVTVSS	low polyreactivity
QVQLVESGGGLVQAGGSLRLSCAASGRTFYNNAMGWYRQAPGKERELVAAISQRTGRTYYADSVKGRFTISRDNAKNTVYLQMNSLKPEDTAVYYCNKVAYYSRRMDYWGQGTQVTVSS	high polyreactivity
QVLLVESGGGLVQAGGSLRIICAASGLTFSDYAMRWYRQAPGKERELVAGISSGGSTYYADSVKGRFTISRDNAKNTVYLQMNSLKPEDTAVYYCAATRYNRWPIKFDYWGQGTQVTVSS	high polyreactivity
QVQLQESGGGLVQAGGSLRLSCAASGTIFWLWAMGWYCQAPGKERELVASISSGGTTYHADSVKGRFTISRDNAKNTVYLQMNSLKPEDTAVYYSAAFYVATSKLGFWGQGSQVTVSS	low polyreactivity
QVQLVESGGGLVQAGGSLRLSCAASGSIFTGYAMGWYRQAPGKERELVAAITYGSGRTYYADSVKGRFTISRDNAKNTVYLQMNSLKPEDTAVYYCAAKWSPYYYYIGYDYWGQGTQVTVSS	low polyreactivity
QVQLVESGGGLVQAGGSLRLICAASGFIFPDYGMGWYRQAPGKERELVAAISRNGVSTYYADSLKRRFTISRDNAKNTVYLQMISLIPEDTAVYYCAARYYRIRRVSKSVYYWGQCTQVTVSS	low polyreactivity
QVQLVESGGGLVQAGGILRLSCAASGSTFVGYAMGWNRQAPGKERELVAAISRTGASTYYADSVKGRFTISRDNAKNTVFLQMNSLKPEDTEVYYCAYYYSIYDYWGQGTLVTVSS	high polyreactivity

Sequence	polyreactivity (PSR sort gate)
QVQLVESGGGLVQAGGSLRLSCAASGSTFGRNAMGWYRQAPGKERELVAAISTSGSRTYYADSVKGRFTISRDNAKNTVYLQMNSLKPEDTAVYYCNAYGVSRGSYGTRGYWGQGTQVTVSS	high polyreactivity
QVQLVESGGGLGKAGGSLRLSCAASGFIFYWNAMGWYRQAPGKEREFVATITWSGGSTYYADSVKGRFTISRDYAKNTVYLQMNSLKPEDTAFYYCAAEAPVQPFYVFNSGIYELDYWGQGTQVTVSS	low polyreactivity
QVQLVESGGGLVQAGGSLRLSCAASGSTFYYYAMGGYRQAPGKERELVAAISISDNSTYYADSVKGRFTSSRDNAKNTVYLQMNSLKPEDTAVYYCAAYGWYAHDDSTYDYWGQGTQVTVSS	low polyreactivity
LVQLVESGGGVVQAGGSLRLSSAASGSIFRNNTMGWYRQAPGKERELVAAISGRGTRTSYADSVKGRFTISRDNAKNTVYLQMNSLKPEDTAVYYCAARSWYLYYWGQGTQVTVSS	low polyreactivity
QVQLVESGGGLVQAGGSLRLSCAASGIIFTKYVMGWYRQAPGKERELVAAINTDGGSTRYADSVKGRFTISRDNAKNTVYLQMNSLKPEDTAVYYCAAVSSRRPGYEYYYWGQGTQVTVSS	high polyreactivity
QVQLVESGGGLVQAGGSLRLSCAASGFTFYSYAMGWYRQAPGKEWELVAAISRRGGSTYYADSVKGRFTISRDNAKNTVYLQMNCLKPEDTAVYYCAAEDSNSRYLYGYDYWGQGTQVTVSS	high polyreactivity
QVQLVESGGGLVQAGGSLRLSCAASGRIFNSKAKGWYRQEPGKERELVAAISWSGGTTYYADSVKGRFTISRDNAKNTVYLQMNSLKPEDTAVYYCNADLWTSYFGRGDYWGQGTQVTVSS	low polyreactivity
QVQLVESGGGLVQAGGSLRLSCAASGSIFYWYDMGWYRHAPGKEWELVAAISFNVGSTYADSVKGRFTISRDNAKNTFYLQMNSLKPEDTAVYYCNVDAYRTSYEADVYYYTWIYYWGQGTQVTVSS	low polyreactivity
QVQLVESGGGLVQAGGSLRLSCPASGSTFSPNAIGWSRQAPGKERELLDAINYSSGSTYYADSVKGRFTISRDNAKNSVYLQMNSLKPEDTAVYYCAVRSYWSSLWTLGDYWGQGTQVTVSS	low polyreactivity
QVQLVESGGGLVQAGGSLRLSCAASGRTFRWYTLGWYRQAPGKERELVAAITSRGGSTYADSVKGRFTISRDNAKNTVYLQMNSLKPEDTAVYYCNAARTYQYDYWGQGTQVTVSS	high polyreactivity
QVQLVESGGGLVQAGGSLRLSCAASGGIFDRYAMGWYRQAPGKERELVAAITSGGSTNYADSVKGRFTISRDNAKNTVYLQMNSLKPEDNAVYYCAAVESSYEAWYTYYYWGQGTQVTVSS	low polyreactivity
QVQLVESGGGLVQAGGSLRLSCAASGSTFTRYAMGWYRQAPGKERELVASISRSGGRTYYADSVKGRFTISRDNAKNTVYLQMNSLKPEDTAVYYCAKLYLVTKSLLEITGGKYDGDYWGQGTQVTVSS	high polyreactivity
QVQLVESGGGFVQAGGSVRLSCAASGRIFKYAMGWYIPAPGKERELVAAITHKGGSTYADSEKGRFTISRDNAKTTVYIQLNSRKPEDTAVYYCAAYYYYGKGYRRFDYWGQGTQVTVSS	low polyreactivity
QVQLVESGGGLVQAGGSLRLSCAASGITFSFYALGWYRHAPGKERELVAAISRGGASTYYADSVKGRFTISRDNAKNTVYLQMNSLKPEDSAVYYCAALSVDERYDYWGQGTQVTVSS	low polyreactivity
QVQLVESGGGLVQAGGSLLLSCAASGRTLFVYDMGWYRQAPGKERELVAAITWGVGSTYYADSVKGRFTISRDNAKNTVYLQLNSLKPEDTAVYYCNAVAIRYYRWYYYWGQGTQVTVSS	high polyreactivity
QVQLVESGGGLLQAGGSLRLSCAASGSIFYRYAMGWYRQAPWKERELVAAISRSGASTYYADSVKGRFTISRDNAKNTVYLQMNSLKPEDTAVYYCAAYFATSRLPVRYDYWGQGTQVTVSS	high polyreactivity
QVQLVESGGGLVQAGGSLRLSCAASGFIFGPNAMGWYRQAPGKERELVAAIRWSSGTTYYADSVKGRFTISRDNAKNTVSLQMNSLKPEDTAVYYCAAGPYVSYYWGQGTQVTVSS	low polyreactivity
QVQLVESGGGLVQAGGSLRLSCAASGRIFDTYVMGWYRQAPGKERELVAAISRSGGSTYYADSVKGRFTISRDNAKNTVYLQMNSLKPEDTAVYYCNKLASWWSAYYNPYEYWGQGTQVTVSS	high polyreactivity
QVQLVESGGGLVQAGGSLRLSCAASGLTFVLYAMGWYRQAPGQERELVAAISKRGGSTNYADSVKGRFTISRDNAKNTVYLQMNSLKPADTAVYYCAPRYPQGGTGKATYVRSRSGYWGQGTQVTVSS	high polyreactivity
QVQLVESGGGLVQAGGSLRLSCAASGRIFYNYAMGWYRQAPGKERELVAAISGSGGSTYYADSVKGRFTISRDNAKNTVYLQMNSLKPEDTEVYYCSTSGPQYYSRNFDYWGQGTQVTVSS	low polyreactivity
QVQLVESGGGLVQAGGSLRLSCAATGLNFAYNAMGWYRQAPGKERELVAAITGGGDGTYYADSVKGRFTISRDNAKNTVYLQMNSLKPEDTAVYYCADDYKYVGSEYGYWGQGTQVTVSS	low polyreactivity
